Laboratory results: article PMC9482650, “Quantitative fragmentomics allow affinity mapping of interactomes” (Nature Communications, 2022)

Target: T1, DLG3_1, Q92796
T1 sequence (Q92796 125-227, limits assumed, looked up): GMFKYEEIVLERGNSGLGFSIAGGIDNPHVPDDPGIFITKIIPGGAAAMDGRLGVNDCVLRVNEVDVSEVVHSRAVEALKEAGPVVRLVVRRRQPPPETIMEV
Experiment: holdup assay
Design: key: below the threshold = too weak to quantify, mostly under pKd 3.1 to 4
Conditions: plain residues with an end cap or a label only (N-terminal biotin on a linker: ado-ado)

Binder	pKd
RELVMRVTTV [MARCHF4, Q9P2E8]	4.38
LEPAVRSSEL [SH2D3C, Q8N5H7]	below the threshold

Target: DLG4_3, P78352
Sequence (P78352 306-403): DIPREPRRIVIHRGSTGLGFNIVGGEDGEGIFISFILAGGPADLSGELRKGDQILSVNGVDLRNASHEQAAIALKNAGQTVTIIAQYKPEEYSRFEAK
Experiment: holdup assay
Design: key: below the threshold = too weak to quantify, mostly under pKd 3.1 to 4
Conditions: plain residues with an end cap or a label only (N-terminal biotin on a linker: ado-ado)

Binder	pKd
RELVMRVTTV [MARCHF4, Q9P2E8]	4.87
LEPAVRSSEL [SH2D3C, Q8N5H7]	below the threshold

Target: IL16_1, Q14005
Sequence (Q14005 210-306): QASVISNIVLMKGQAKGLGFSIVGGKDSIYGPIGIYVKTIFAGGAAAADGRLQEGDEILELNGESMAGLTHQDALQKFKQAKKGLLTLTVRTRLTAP
Experiment: holdup assay
Design: key: below the threshold = too weak to quantify, mostly under pKd 3.1 to 4
Conditions: plain residues with an end cap or a label only (N-terminal biotin on a linker: ado-ado)

Binder	pKd
RELVMRVTTV [MARCHF4, Q9P2E8]	4.33
LEPAVRSSEL [SH2D3C, Q8N5H7]	below the threshold

Target: T2, LNX2_2, Q8N448
T2 sequence (Q8N448 334-432, limits assumed, looked up): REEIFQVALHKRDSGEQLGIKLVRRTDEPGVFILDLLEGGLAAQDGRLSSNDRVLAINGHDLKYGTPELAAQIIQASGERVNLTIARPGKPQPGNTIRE
Experiment: holdup assay
Design: key: below the threshold = too weak to quantify, mostly under pKd 3.1 to 4
Conditions: plain residues with an end cap or a label only (N-terminal biotin on a linker: ado-ado)

Binder	pKd
RELVMRVTTV [MARCHF4, Q9P2E8]	5.27
LEPAVRSSEL [SH2D3C, Q8N5H7]	below the threshold

Target: T3, SNTA1, Q13424
T3 sequence (Q13424 82-180, limits assumed, looked up): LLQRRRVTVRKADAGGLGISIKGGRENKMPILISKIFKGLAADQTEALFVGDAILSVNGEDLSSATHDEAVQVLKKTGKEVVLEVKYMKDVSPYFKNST
Experiment: holdup assay
Design: key: below the threshold = too weak to quantify, mostly under pKd 3.1 to 4
Conditions: plain residues with an end cap or a label only (N-terminal biotin on a linker: ado-ado)

Binder	pKd
RELVMRVTTV [MARCHF4, Q9P2E8]	5.1
LEPAVRSSEL [SH2D3C, Q8N5H7]	3.95

Target: PDLIM1, O00151
Sequence (O00151 1-87): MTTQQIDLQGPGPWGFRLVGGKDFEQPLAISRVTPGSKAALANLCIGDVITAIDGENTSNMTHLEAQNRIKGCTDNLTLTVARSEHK
Experiment: holdup assay
Design: key: below the threshold = too weak to quantify, mostly under pKd 3.1 to 4
Conditions: plain residues with an end cap or a label only (N-terminal biotin on a linker: ado-ado)

Binder	pKd
RELVMRVTTV [MARCHF4, Q9P2E8]	below the threshold
LEPAVRSSEL [SH2D3C, Q8N5H7]	3.5

Target: T4, PCLO, Q9Y6V0
T4 sequence (Q9Y6V0 4491-4600, limits assumed, looked up): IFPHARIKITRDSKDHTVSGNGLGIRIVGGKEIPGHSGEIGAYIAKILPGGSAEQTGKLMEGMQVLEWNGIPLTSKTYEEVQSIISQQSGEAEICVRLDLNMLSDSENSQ
Experiment: holdup assay
Design: key: below the threshold = too weak to quantify, mostly under pKd 3.1 to 4
Conditions: plain residues with an end cap or a label only (N-terminal biotin on a linker: ado-ado)

Binder	pKd
RELVMRVTTV [MARCHF4, Q9P2E8]	below the threshold
LEPAVRSSEL [SH2D3C, Q8N5H7]	below the threshold

Target: Inadl_4, Q8NI35
Sequence (Q8NI35 547-651): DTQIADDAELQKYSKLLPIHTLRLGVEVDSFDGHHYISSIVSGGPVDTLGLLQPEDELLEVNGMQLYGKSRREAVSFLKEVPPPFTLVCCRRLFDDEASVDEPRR
Experiment: holdup assay
Design: key: below the threshold = too weak to quantify, mostly under pKd 3.1 to 4
Conditions: plain residues with an end cap or a label only (N-terminal biotin on a linker: ado-ado)

Binder	pKd
RELVMRVTTV [MARCHF4, Q9P2E8]	below the threshold
LEPAVRSSEL [SH2D3C, Q8N5H7]	below the threshold

Target: IL16_3, Q14005
Sequence (Q14005 1107-1207): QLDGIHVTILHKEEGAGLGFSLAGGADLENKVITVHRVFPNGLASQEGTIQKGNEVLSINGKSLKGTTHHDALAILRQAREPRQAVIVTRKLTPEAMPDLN
Experiment: holdup assay
Design: key: below the threshold = too weak to quantify, mostly under pKd 3.1 to 4
Conditions: plain residues with an end cap or a label only (N-terminal biotin on a linker: ado-ado)

Binder	pKd
RELVMRVTTV [MARCHF4, Q9P2E8]	below the threshold
LEPAVRSSEL [SH2D3C, Q8N5H7]	below the threshold

Target: NHERF4_1, Q86UT5-2
Sequence (Q86UT5 other isoform, or with tags, fused parts or gaps): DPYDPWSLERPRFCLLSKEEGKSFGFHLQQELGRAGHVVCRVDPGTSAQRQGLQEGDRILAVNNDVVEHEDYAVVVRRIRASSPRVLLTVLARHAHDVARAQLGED
Experiment: holdup assay
Design: key: below the threshold = too weak to quantify, mostly under pKd 3.1 to 4
Conditions: plain residues with an end cap or a label only (N-terminal biotin on a linker: ado-ado)

Binder	pKd
RELVMRVTTV [MARCHF4, Q9P2E8]	below the threshold
LEPAVRSSEL [SH2D3C, Q8N5H7]	4.18

Target: PARD3_3, Q8TEW0
Sequence (Q8TEW0 582-685): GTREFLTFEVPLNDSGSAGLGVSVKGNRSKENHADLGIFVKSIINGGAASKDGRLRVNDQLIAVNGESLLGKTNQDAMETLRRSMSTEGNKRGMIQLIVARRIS
Experiment: holdup assay
Design: key: below the threshold = too weak to quantify, mostly under pKd 3.1 to 4
Conditions: plain residues with an end cap or a label only (N-terminal biotin on a linker: ado-ado)

Binder	pKd
RELVMRVTTV [MARCHF4, Q9P2E8]	below the threshold
LEPAVRSSEL [SH2D3C, Q8N5H7]	below the threshold

Target: GRIP2_3, Q9C0E4
Sequence (Q9C0E4 238-339): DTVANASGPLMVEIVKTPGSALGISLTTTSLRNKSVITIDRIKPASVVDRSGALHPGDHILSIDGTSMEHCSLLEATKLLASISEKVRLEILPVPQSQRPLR
Experiment: holdup assay
Design: key: below the threshold = too weak to quantify, mostly under pKd 3.1 to 4
Conditions: plain residues with an end cap or a label only (N-terminal biotin on a linker: ado-ado)

Binder	pKd
RELVMRVTTV [MARCHF4, Q9P2E8]	below the threshold
LEPAVRSSEL [SH2D3C, Q8N5H7]	below the threshold

Target: LIMK2, P53671
Sequence (P53671 143-248): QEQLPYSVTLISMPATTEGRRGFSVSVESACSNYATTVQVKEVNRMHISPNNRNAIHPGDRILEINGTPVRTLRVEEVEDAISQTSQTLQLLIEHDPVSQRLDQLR
Experiment: holdup assay
Design: key: below the threshold = too weak to quantify, mostly under pKd 3.1 to 4
Conditions: plain residues with an end cap or a label only (N-terminal biotin on a linker: ado-ado)

Binder	pKd
RELVMRVTTV [MARCHF4, Q9P2E8]	below the threshold
LEPAVRSSEL [SH2D3C, Q8N5H7]	below the threshold

Target: DLG4_2, P78352
Sequence (P78352 155-259): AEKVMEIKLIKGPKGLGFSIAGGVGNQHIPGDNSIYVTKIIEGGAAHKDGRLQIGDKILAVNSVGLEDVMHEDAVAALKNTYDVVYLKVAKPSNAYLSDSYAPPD
Experiment: holdup assay
Design: key: below the threshold = too weak to quantify, mostly under pKd 3.1 to 4
Conditions: plain residues with an end cap or a label only (N-terminal biotin on a linker: ado-ado)

Binder	pKd
RELVMRVTTV [MARCHF4, Q9P2E8]	5.28
LEPAVRSSEL [SH2D3C, Q8N5H7]	below the threshold

Target: T5, FRMPD1, Q5SYB0
T5 sequence (Q5SYB0 52-145, limits assumed, looked up): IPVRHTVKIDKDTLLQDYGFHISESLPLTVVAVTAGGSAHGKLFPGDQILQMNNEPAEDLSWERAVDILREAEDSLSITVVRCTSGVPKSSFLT
Experiment: holdup assay
Design: key: below the threshold = too weak to quantify, mostly under pKd 3.1 to 4
Conditions: plain residues with an end cap or a label only (N-terminal biotin on a linker: ado-ado)

Binder	pKd
RELVMRVTTV [MARCHF4, Q9P2E8]	below the threshold
LEPAVRSSEL [SH2D3C, Q8N5H7]	below the threshold

Target: IL16_4, Q14005
Sequence (Q14005 1229-1329): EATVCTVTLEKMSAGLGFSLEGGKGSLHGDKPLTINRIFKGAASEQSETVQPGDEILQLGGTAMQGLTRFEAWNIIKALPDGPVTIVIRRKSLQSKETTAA
Experiment: holdup assay
Design: key: below the threshold = too weak to quantify, mostly under pKd 3.1 to 4
Conditions: plain residues with an end cap or a label only (N-terminal biotin on a linker: ado-ado)

Binder	pKd
RELVMRVTTV [MARCHF4, Q9P2E8]	below the threshold
LEPAVRSSEL [SH2D3C, Q8N5H7]	below the threshold

Target: Inadl_8, Q8NI35
Sequence (Q8NI35 1425-1530): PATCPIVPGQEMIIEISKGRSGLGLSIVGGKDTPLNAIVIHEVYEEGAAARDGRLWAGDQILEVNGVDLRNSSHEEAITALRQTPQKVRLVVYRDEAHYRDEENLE
Experiment: holdup assay
Design: key: below the threshold = too weak to quantify, mostly under pKd 3.1 to 4
Conditions: plain residues with an end cap or a label only (N-terminal biotin on a linker: ado-ado)

Binder	pKd
RELVMRVTTV [MARCHF4, Q9P2E8]	5.5
LEPAVRSSEL [SH2D3C, Q8N5H7]	below the threshold

Target: HTRA2, O43464
Sequence (O43464 355-458): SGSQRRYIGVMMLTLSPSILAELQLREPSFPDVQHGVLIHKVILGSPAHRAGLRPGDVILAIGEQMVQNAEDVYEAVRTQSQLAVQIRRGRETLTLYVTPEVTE
Experiment: holdup assay
Design: key: below the threshold = too weak to quantify, mostly under pKd 3.1 to 4
Conditions: plain residues with an end cap or a label only (N-terminal biotin on a linker: ado-ado)

Binder	pKd
RELVMRVTTV [MARCHF4, Q9P2E8]	3.83
LEPAVRSSEL [SH2D3C, Q8N5H7]	below the threshold

Target: T6, LIN7B, Q9HAP6
T6 sequence (Q9HAP6 88-185, limits assumed, looked up): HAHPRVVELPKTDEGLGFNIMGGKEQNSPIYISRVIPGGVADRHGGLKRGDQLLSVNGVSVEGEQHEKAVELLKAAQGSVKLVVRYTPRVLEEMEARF
Experiment: holdup assay
Design: key: below the threshold = too weak to quantify, mostly under pKd 3.1 to 4
Conditions: plain residues with an end cap or a label only (N-terminal biotin on a linker: ado-ado)

Binder	pKd
RELVMRVTTV [MARCHF4, Q9P2E8]	4.2
LEPAVRSSEL [SH2D3C, Q8N5H7]	below the threshold

Target: T7, SNTG2, Q9NY99
T7 sequence (Q9NY99 68-166, limits assumed, looked up): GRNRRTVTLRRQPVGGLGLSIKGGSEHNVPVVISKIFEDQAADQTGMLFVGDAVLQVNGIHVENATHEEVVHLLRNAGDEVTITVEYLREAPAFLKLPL
Experiment: holdup assay
Design: key: below the threshold = too weak to quantify, mostly under pKd 3.1 to 4
Conditions: plain residues with an end cap or a label only (N-terminal biotin on a linker: ado-ado)

Binder	pKd
RELVMRVTTV [MARCHF4, Q9P2E8]	4.64
LEPAVRSSEL [SH2D3C, Q8N5H7]	below the threshold

Target: T8, PDZRN3_1, Q9UPQ7
T8 sequence (Q9UPQ7 244-349, limits assumed, looked up): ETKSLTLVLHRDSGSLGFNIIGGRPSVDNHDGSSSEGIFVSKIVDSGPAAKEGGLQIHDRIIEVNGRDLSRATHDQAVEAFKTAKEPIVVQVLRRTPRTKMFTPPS
Experiment: holdup assay
Design: key: below the threshold = too weak to quantify, mostly under pKd 3.1 to 4
Conditions: plain residues with an end cap or a label only (N-terminal biotin on a linker: ado-ado)

Binder	pKd
RELVMRVTTV [MARCHF4, Q9P2E8]	3.77
LEPAVRSSEL [SH2D3C, Q8N5H7]	4.13

Target: T9, MPP2, Q14168
T9 sequence (Q14168 180-250, limits assumed, looked up): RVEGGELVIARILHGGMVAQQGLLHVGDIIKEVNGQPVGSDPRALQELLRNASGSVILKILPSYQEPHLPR
Experiment: holdup assay
Design: key: below the threshold = too weak to quantify, mostly under pKd 3.1 to 4
Conditions: plain residues with an end cap or a label only (N-terminal biotin on a linker: ado-ado)

Binder	pKd
RELVMRVTTV [MARCHF4, Q9P2E8]	below the threshold
LEPAVRSSEL [SH2D3C, Q8N5H7]	below the threshold

Target: T10, RHPN1, Q8TCX5
T10 sequence (Q8TCX5 508-602, limits assumed, looked up): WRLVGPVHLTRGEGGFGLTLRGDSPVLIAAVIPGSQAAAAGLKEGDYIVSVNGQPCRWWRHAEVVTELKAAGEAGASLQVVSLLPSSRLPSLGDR
Experiment: holdup assay
Design: key: below the threshold = too weak to quantify, mostly under pKd 3.1 to 4
Conditions: plain residues with an end cap or a label only (N-terminal biotin on a linker: ado-ado)

Binder	pKd
RELVMRVTTV [MARCHF4, Q9P2E8]	4.06
LEPAVRSSEL [SH2D3C, Q8N5H7]	3.66

Target: FRMPD2_1, Q68DX3
Sequence (Q68DX3 770-861): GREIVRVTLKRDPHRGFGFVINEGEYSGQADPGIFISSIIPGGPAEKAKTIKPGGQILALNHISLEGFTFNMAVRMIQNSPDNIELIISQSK
Experiment: holdup assay
Design: key: below the threshold = too weak to quantify, mostly under pKd 3.1 to 4
Conditions: plain residues with an end cap or a label only (N-terminal biotin on a linker: ado-ado)

Binder	pKd
RELVMRVTTV [MARCHF4, Q9P2E8]	3.48
LEPAVRSSEL [SH2D3C, Q8N5H7]	below the threshold

Target: HTRA1, Q92743
Sequence (Q92743 360-477): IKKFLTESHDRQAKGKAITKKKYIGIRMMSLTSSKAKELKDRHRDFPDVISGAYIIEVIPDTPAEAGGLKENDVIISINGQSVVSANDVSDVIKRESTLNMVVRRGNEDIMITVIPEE
Experiment: holdup assay
Design: key: below the threshold = too weak to quantify, mostly under pKd 3.1 to 4
Conditions: plain residues with an end cap or a label only (N-terminal biotin on a linker: ado-ado)

Binder	pKd
RELVMRVTTV [MARCHF4, Q9P2E8]	4.96
LEPAVRSSEL [SH2D3C, Q8N5H7]	below the threshold

Target: T11, TX1BP3, O14907
T11 sequence (O14907 10-122, limits assumed, looked up): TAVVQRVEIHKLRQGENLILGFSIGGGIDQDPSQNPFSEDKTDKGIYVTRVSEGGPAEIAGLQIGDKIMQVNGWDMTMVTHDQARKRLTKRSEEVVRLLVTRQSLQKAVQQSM
Experiment: holdup assay
Design: key: below the threshold = too weak to quantify, mostly under pKd 3.1 to 4
Conditions: plain residues with an end cap or a label only (N-terminal biotin on a linker: ado-ado)

Binder	pKd
RELVMRVTTV [MARCHF4, Q9P2E8]	4.75
LEPAVRSSEL [SH2D3C, Q8N5H7]	3.86

Target: SNX27, Q96L92
Experiment: holdup assay
Design: key: below the threshold = too weak to quantify, mostly under pKd 3.1 to 4
Conditions: plain residues with an end cap or a label only (N-terminal biotin on a linker: ado-ado)

Binder	pKd
RELVMRVTTV [MARCHF4, Q9P2E8]	5.48
LEPAVRSSEL [SH2D3C, Q8N5H7]	4.68
